The results in this text go back to US5453362, “Eukaryotic transcription protein; host cell factor” (Tularik Inc.).

The target in data set [1] is GST-VP16 with insect extract, no Oct-1 POU (Herpes simplex virus, UniProt P06492 P06492:5-411). The experiment in a line: EMSA; no specific complex with SL2 or Sf9 extract without Oct-1 POU. The note with it: tags: GST; label: 32P end. On the technique in general: In EMSA bound probe runs differently from free probe, usually more slowly.
Data set [2] has as its target VP16-induced complex: Oct-1 POU domain + GST-VP16 + partially purified human HCF (Homo sapiens / Herpes simplex virus, UniProt P14859;P06492;P51610 P14859:280-438,P06492:5-411,P51610:2-2035). The experiment in a line: EMSA; 50 mM KCl, pH 7.9, 1 mM EDTA, 30 C; complex disrupted by anti-HCF sera (FIG. 4, WGA fraction). The note with it: tags: GST on VP16; Oct-1 POU recombinant from E. coli, GST removed by thrombin; label: 32P end.

VP16-induced complex: Oct-1 POU domain + GST-VP16 + partially purified human HCF, sequence (P14859 280-438, chain 1 of 3): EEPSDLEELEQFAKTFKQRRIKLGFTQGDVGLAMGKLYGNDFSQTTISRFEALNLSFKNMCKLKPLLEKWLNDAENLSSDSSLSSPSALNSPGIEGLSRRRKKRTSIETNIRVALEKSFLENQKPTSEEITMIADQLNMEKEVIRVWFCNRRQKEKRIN
VP16-induced complex: Oct-1 POU domain + GST-VP16 + partially purified human HCF, sequence (P06492 5-411, chain 2 of 3): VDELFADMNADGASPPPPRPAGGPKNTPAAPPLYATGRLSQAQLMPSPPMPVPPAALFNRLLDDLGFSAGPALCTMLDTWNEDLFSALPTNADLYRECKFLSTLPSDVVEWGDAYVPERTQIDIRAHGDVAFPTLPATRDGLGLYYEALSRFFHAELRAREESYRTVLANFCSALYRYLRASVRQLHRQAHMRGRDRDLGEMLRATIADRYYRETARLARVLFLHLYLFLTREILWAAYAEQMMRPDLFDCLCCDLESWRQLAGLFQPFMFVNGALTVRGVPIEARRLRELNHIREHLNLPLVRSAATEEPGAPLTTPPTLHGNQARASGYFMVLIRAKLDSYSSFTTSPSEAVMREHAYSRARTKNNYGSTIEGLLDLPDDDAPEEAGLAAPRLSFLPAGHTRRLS
VP16-induced complex: Oct-1 POU domain + GST-VP16 + partially purified human HCF, sequence (P51610 2-2035, chain 3 of 3): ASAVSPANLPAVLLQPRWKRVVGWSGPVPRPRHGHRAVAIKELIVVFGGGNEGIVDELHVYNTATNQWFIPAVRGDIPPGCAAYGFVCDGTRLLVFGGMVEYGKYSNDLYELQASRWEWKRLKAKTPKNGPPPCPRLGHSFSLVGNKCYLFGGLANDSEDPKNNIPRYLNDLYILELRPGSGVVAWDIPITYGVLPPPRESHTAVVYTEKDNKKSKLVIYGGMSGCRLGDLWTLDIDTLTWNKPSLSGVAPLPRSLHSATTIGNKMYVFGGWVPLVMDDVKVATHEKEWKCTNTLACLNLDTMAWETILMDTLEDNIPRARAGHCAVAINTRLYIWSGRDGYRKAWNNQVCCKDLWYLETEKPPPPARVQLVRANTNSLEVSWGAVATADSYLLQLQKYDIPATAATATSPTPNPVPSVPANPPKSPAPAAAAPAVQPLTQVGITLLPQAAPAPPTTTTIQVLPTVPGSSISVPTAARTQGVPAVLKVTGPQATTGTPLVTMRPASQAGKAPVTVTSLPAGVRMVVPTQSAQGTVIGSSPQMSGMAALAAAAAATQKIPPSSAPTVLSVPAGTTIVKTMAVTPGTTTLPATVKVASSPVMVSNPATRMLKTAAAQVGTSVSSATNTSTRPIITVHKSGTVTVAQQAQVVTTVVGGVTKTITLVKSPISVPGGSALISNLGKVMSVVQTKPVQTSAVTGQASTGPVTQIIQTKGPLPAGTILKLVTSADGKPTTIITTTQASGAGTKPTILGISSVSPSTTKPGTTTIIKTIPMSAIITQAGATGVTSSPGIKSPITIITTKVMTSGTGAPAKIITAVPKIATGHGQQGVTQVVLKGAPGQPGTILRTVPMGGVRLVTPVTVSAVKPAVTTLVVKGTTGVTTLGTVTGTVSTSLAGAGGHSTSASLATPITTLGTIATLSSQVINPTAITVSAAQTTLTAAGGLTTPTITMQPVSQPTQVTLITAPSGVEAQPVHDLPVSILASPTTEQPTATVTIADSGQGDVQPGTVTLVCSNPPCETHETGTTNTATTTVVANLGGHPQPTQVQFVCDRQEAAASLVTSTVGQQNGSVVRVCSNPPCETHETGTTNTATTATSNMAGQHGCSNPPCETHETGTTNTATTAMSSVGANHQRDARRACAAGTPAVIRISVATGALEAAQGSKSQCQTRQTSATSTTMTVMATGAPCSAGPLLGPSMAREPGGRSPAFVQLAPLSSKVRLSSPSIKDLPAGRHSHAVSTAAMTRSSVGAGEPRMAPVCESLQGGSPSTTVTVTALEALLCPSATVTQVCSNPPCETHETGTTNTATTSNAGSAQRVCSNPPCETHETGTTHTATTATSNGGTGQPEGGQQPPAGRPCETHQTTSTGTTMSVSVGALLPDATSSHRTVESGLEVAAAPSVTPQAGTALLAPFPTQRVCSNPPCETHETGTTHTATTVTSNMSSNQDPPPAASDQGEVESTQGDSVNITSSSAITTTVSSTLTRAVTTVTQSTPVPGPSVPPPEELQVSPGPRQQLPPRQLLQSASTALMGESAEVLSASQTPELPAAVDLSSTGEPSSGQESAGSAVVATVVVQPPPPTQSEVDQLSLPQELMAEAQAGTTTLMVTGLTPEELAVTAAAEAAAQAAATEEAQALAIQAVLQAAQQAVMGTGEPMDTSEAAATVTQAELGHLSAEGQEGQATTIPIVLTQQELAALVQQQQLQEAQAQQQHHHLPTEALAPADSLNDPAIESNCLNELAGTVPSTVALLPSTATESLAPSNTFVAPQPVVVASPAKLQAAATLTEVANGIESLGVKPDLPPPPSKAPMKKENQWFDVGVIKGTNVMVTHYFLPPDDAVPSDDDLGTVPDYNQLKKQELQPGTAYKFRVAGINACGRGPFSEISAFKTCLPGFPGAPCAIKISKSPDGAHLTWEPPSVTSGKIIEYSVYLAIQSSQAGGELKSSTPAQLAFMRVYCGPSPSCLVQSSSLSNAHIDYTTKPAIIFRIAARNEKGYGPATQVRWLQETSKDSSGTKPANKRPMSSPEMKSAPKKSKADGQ
GST-VP16 with insect extract, no Oct-1 POU, sequence (P06492 5-411, one chain of several): as the sequence (P06492 5-411, chain 2 of 3) above

B1: (Octa+)… ICP0 IE element (dsDNA)
DNA 1: ATGCTAATGATAT
DNA 2: ATATCATTAGCAT
As for B1, the binding result in data set [1] is listed as “no binding”; in data set [2], “binds”.
